Reference: publication PMC7026407, “Multiple Growth Factor Targeting by Engineered Insulin-like Growth Factor Binding Protein-3 Augments EGF Receptor Tyrosine Kinase Inhibitor Efficacy” (Scientific Reports, 2020)

B2: VEGF-B (ligand, UniProt P49765 22-207, looked up)
chain: PVSQPDAPGHQRKVVSWIDVYTRATCQPREVVVPLTVELMGTVAKQLVPSCVTVQRCGGCCPDDGLECVPTGQHQVRMQILMIRYPSSQLGEMSLEEHSQCECRPKKKDSAVKPDRAATPHHRPQPRSVPGWDSAPGAPSPADITHPTPAPGPSAHAAPSTTSALTPGPAAAAADAAASSVAKGGA
notes: vascular endothelial growth factor B
B4: PDGF BB (ligand, UniProt P01127 82-190, looked up)
chain: SLGSLTIAEPAMIAECKTRTEVFEISRRLIDRTNANFLVWPPCVEVQRCSGCCNNRNVQCRPTQVQLRPVQVRKIEIVRKKPIFKKATVTLEDHLACKCETVAAARPVT
notes: platelet-derived growth factor B chain

Assays:
Settings in all cases: both partners purified
[1] = target: T1, 56662 (UniProt P17936-1 28-291); test: SPR; growth factor amine-coupled to a CM4 chip, Fc fusion as analyte (values marked * in Table 1); Biacore T100/T200; HBS-P, with 0.2 mg/ml BSA or 0.65 M NaCl to reduce non-specific binding; 25 °C; 1:1 binding fit
T1 construct: Fc dimer; also called BP3-Fc; IGFBP-3-Fc; source: 293T cells, transfected, conditioned medium, purified (protein A Sepharose); not shown: Fc (IgG1), C-terminal, kept

[2] = target: T2, Chimera A; test: as above
T2 construct: VEGF receptor 1 domain 2, first part of VEGF-trap; VEGF receptor 2 domain 3, second part of VEGF-trap; VEGF-trap inserted between the IGFBP-3 and the Fc domain; Fc dimer; also called chA; BP3-VEGF-trap-Fc; source: 293T cells, transfected, conditioned medium, purified (protein A Sepharose); not shown: Fc (IgG1), C-terminal, kept

[3] = target: T3, IGFBP-7 (UniProt Q16270 27-282); test: SPR; IGF binding protein or Fc fusion amine-coupled to a CM4 chip, growth factor as analyte; Biacore T100/T200; HBS-P, with 0.2 mg/ml BSA or 0.65 M NaCl to reduce non-specific binding; 25 °C; 1:1 binding fit
T3 sequence (looked up): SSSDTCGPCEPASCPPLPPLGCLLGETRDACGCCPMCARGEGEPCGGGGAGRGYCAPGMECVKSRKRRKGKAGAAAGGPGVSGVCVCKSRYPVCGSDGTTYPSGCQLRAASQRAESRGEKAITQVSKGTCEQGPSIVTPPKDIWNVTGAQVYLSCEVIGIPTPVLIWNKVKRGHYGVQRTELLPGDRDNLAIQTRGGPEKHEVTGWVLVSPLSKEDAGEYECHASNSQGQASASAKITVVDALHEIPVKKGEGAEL

[4] = target: IGFBP-3 (UniProt P17936 28-291); test: as above
[5] = target: T1, 56662; test: as above
[6] = target: T4, IGFBP-2 (UniProt P18065 36-325); test: as above
T4 sequence (looked up): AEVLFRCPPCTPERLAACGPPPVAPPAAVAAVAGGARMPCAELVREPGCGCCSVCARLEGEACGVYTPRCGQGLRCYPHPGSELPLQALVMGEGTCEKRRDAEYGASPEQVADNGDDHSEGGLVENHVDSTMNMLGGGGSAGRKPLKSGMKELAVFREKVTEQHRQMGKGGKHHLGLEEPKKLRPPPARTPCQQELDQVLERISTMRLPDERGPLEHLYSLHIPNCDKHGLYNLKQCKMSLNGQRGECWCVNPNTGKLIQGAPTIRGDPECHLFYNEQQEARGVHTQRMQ

[7] = target: T5, 56662 (UniProt P17936-1 28-291); test: SPR; IGF binding protein or Fc fusion amine-coupled to a CM4 chip, growth factor as analyte; Biacore T100 or T200, HBS-P, BSA (0.2 mg/ml) or NaCl (0.65 M final) to reduce non-specific binding, 25 °C; 1:1 binding analysis
T5 construct: the secretory signal peptide was derived from IGFBP-2; Fc portion of IgG1 added to the C terminus of IGFBP-3; called an Fc dimer; Probably the mature IGFBP-3 after removal of the IGFBP-2 signal peptide; also called IGFBP-3-Fc; BP3-Fc (unmodified IGFBP-3 Fc construct); source: 293 T cells, transfected; conditioned medium purified by proteinA Sepharose; not shown: Fc (IgG1), C-terminal, kept

[8] = target: T5, 56662; test: SPR; growth factor immobilised on a CM4 chip instead of the binding protein (asterisk in Table 1), binding protein or Fc fusion as analyte; HBS-P, 25 °C; regeneration with 4 M MgCl2 then 5 M guanidinium chloride; 1:1 binding analysis
[9] = target: neuregulin-1 (UniProt Q02297 20-241); test: SPR; growth factor amine-coupled to a CM4 chip, Fc fusion as analyte (values marked * in Table 1); Biacore T100/T200; HBS-P, with 0.2 mg/ml BSA or 0.65 M NaCl to reduce non-specific binding; 25 °C; 1:1 binding fit
[10] = target: T6, bFGF (UniProt P09038 143-288); test: as above
T6 construct: basic fibroblast growth factor; also called basic FGF

[11] = target: B4; test: as above
[12] = target: T7, hepatocyte growth factor (UniProt P14210 32-728); test: as above
T7 construct: hepatocyte growth factor; also called HGF; source: bought
T7 sequence (P14210 32-728): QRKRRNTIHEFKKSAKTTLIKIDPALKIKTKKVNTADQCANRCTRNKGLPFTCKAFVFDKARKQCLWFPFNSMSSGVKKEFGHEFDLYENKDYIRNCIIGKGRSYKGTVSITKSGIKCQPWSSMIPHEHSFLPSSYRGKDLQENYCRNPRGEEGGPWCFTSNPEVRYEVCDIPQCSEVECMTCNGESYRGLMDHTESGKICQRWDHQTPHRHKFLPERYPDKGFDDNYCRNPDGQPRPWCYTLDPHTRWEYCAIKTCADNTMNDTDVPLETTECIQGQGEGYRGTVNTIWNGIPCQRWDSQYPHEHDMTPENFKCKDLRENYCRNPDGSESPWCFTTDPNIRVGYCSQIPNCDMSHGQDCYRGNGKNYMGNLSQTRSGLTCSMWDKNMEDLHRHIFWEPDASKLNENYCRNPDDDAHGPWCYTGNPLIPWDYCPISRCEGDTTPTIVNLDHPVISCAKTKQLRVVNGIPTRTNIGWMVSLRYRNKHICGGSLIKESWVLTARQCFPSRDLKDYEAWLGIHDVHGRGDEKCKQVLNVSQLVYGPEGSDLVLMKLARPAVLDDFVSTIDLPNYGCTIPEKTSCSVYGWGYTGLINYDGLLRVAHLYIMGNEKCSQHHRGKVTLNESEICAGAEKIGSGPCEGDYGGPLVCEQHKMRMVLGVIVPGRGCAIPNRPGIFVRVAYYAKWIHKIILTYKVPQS

[13] = target: B2; test: as above
[14] = target: T8, insulin-like growth factor-2 (UniProt P01344 25-91); test: SPR; IGF binding protein or Fc fusion amine-coupled to a CM4 chip, growth factor as analyte; Biacore T100/T200; HBS-P, with 0.2 mg/ml BSA or 0.65 M NaCl to reduce non-specific binding; 25 °C; 1:1 binding fit
T8 construct: insulin-like growth factor 2; also called IGF2; IGF-2

[15] = target: T9, insulin-like growth factor-1 (UniProt P05019 49-118); test: as above
T9 construct: insulin-like growth factor 1; also called IGF1; IGF-1

[16] = target: T10, hepatocyte growth factor (UniProt P14210 32-728); test: SPR; IGF binding protein or Fc fusion amine-coupled to a CM4 chip, growth factor as analyte; Biacore T100 or T200, HBS-P, BSA (0.2 mg/ml) or NaCl (0.65 M final) to reduce non-specific binding, 25 °C; 1:1 binding analysis
T10 construct: hepatocyte growth factor, commercial; Mature HGF is a two-chain (alpha/beta) product of one precursor; the preparation is said to hold both processed and unprocessed forms; also called HGF; source: expressed in insect cells
T10 sequence (P14210 32-728): as above

T9 sequence (P05019 49-118): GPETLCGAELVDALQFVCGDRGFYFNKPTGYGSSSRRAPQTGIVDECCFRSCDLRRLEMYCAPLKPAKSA
neuregulin-1, sequence (Q02297 20-241): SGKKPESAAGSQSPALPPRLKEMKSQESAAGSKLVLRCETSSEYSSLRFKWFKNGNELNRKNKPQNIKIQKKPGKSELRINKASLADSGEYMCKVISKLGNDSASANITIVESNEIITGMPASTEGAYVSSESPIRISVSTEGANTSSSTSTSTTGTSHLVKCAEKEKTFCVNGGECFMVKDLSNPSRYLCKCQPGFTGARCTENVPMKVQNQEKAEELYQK
T2 sequence (Q02297 20-241, stated change not applied): as the sequence (Q02297 20-241) above
T6 sequence (P09038 143-288): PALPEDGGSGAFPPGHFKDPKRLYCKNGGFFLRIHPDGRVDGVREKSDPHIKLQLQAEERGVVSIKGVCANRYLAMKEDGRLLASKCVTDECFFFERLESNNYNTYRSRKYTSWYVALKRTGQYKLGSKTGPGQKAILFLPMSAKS
T8 sequence (P01344 25-91): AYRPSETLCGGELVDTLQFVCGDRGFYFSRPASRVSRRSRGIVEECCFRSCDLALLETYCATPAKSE

B1: neuregulin-1 (ligand)
chain: SERKEGRGKGKGKKKERGSGKKPESAAGSQSPALPPRLKEMKSQESAAGSKLVLRCETSSEYSSLRFKWFKNGNELNRKNKPQNIKIQKKPGKSELRINKASLADSGEYMCKVISKLGNDSASANITIVESNEIITGMPASTEGAYVSSESPIRISVSTEGANTSSSTSTSTTGTSHLVKCAEKEKTFCVNGGECFMVKDLSNPSRYLCKCPNEFTGDRCQNYVMASFYKHLGIEFMEAEELYQK
modifications: R&D 377-HB, neuregulin extracellular domain, taken as NRG1-beta1 Ser2-Lys246; the paper prints only the catalogue number and 'extracellular domain'.
[1]
  koff: 0.00443 s⁻¹
  kon: 481000 M⁻¹ s⁻¹
[2]
  koff: 0.000291 s⁻¹
  kon: 394000 M⁻¹ s⁻¹
[3]
  koff: 0.00129 s⁻¹
  kon: 800 M⁻¹ s⁻¹
[4]
  koff: 0.000883 s⁻¹
  kon: 425000 M⁻¹ s⁻¹

## B2
[3]
  koff: 0.00277 s⁻¹
  kon: 875000 M⁻¹ s⁻¹
[4]
  koff: 0.000751 s⁻¹
  kon: 96600 M⁻¹ s⁻¹
[5]
  koff: 0.000284 s⁻¹
  kon: 45000 M⁻¹ s⁻¹
[6]
  koff: 0.000441 s⁻¹
  kon: 157000 M⁻¹ s⁻¹

B3: PDGF BB (ligand, UniProt P01127 82-190, looked up)
chain: SLGSLTIAEPAMIAECKTRTEVFEISRRLIDRTNANFLVWPPCVEVQRCSGCCNNRNVQCRPTQVQLRPVQVRKIEIVRKKPIFKKATVTLEDHLACKCETVAAARPVT
notes: platelet-derived growth factor B chain; Homodimer of B chains by its name
[7]
  Kd: 0.52 nM
[8]
  Kd: 4.19 nM

## B4
[1]
  koff: 0.000562 s⁻¹
  kon: 259000 M⁻¹ s⁻¹

B5: D3 (Fc fusion)
chain: GASSAGLGPVVRCEPCDARALAQCAPPPAVCAELVREPGCGCCLTCALSEGQPCGIYTERCGSGLRCQPSPDEARPLQALLDGRGLCVNASAVSRPAPPAPGNASESEEDRSAGSVESPSVSSTHRVSDPKFHPKGHAKVDYESQSTDTQNFSSESKRETEYGPCRREMEDTLNHLKFLNVLSPRGVHIPNCDKKGFYKKKQCRPSKGRKRGFCWCVDKYGQPLPGYTTKGKEDVHCYSMQSK
modifications: Secreted Fc-fusion dimer; Fc omitted. Deletions 121-126, 166-174 and 180-185 are in 56662 precursor numbering (UniProt = construct + 2; the offset agrees with the H3t33-type deletion printed in …)
[9]
  koff: 0.00053 s⁻¹
  kon: 270000 M⁻¹ s⁻¹
[10]
  koff: 0.000529 s⁻¹
  kon: 161000 M⁻¹ s⁻¹
[11]
  koff: 0.00175 s⁻¹
  kon: 550000 M⁻¹ s⁻¹
[12]
  koff: 0.000291 s⁻¹
  kon: 110000 M⁻¹ s⁻¹
[13]
  koff: 0.000445 s⁻¹
  kon: 25000 M⁻¹ s⁻¹
[14]
  koff: 0.00185 s⁻¹
  kon: 8.25e+06 M⁻¹ s⁻¹
[15]
  koff: 8.36e-05 s⁻¹
  kon: 163000 M⁻¹ s⁻¹

B6: IGFBP-7 (natural protein, UniProt Q16270 27-282, looked up)
chain: SSSDTCGPCEPASCPPLPPLGCLLGETRDACGCCPMCARGEGEPCGGGGAGRGYCAPGMECVKSRKRRKGKAGAAAGGPGVSGVCVCKSRYPVCGSDGTTYPSGCQLRAASQRAESRGEKAITQVSKGTCEQGPSIVTPPKDIWNVTGAQVYLSCEVIGIPTPVLIWNKVKRGHYGVQRTELLPGDRDNLAIQTRGGPEKHEVTGWVLVSPLSKEDAGEYECHASNSQGQASASAKITVVDALHEIPVKKGEGAEL
notes: source: bought (commercially available, carrier-free)
[16]
  binding result: binds
